Residue numbers refer to the chain shown, from its start. Numbers in names are those of the source.
B1: Rat amylin (islet amyloid polypeptide, IAPP) (Rattus norvegicus) (peptide)
chain: KCNTATCATQRLANFLVRSSNNLGPVLPPTNVGSNTY
B2: Ac-pramlintide (N-acetylated pramlintide) (Homo sapiens (synthetic analogue); A25P;S28P;S29P) (peptide)
chain: B1 chain with R18H, L23F, V26I
B3: Pramlintide (synthetic human amylin analogue, Symlin) (Homo sapiens (synthetic analogue); A25P;S28P;S29P) (peptide)
chain: B1 chain with R18H, L23F, V26I
B4: Amylin(1-19), membrane-disrupting fragment of human amylin (IAPP) (Homo sapiens) (peptide)
chain: KCNTATCATQRLANFLVHS

What was measured:
Assay in all cases: potentiometry
[1] = biological target: Tyr37 (position 37, VGSNTY-----)
[2] = biological target: Nterm1 (position 1, -----KCNTAT)
[3] = biological target: Lys1 (position 1, -----KCNTAT)
His18 (position 18, …) = biological target: His18 (position 18, …)
[4] = biological target: His18 (position 18, ANFLVHS----)
[5] = 298 K, 40 mM SDS (stated as the ionic strength), none (ligand 0.5 mM, Cu(II):ligand 0.9:1), Cu(II)-bound peptide (1:1 complex) in SDS, the titrating residue is not coordinated to the metal
[6] = 298 K, 40 mM SDS (stated as the ionic strength), none (ligand 0.5 mM; electrode calibrated by titrating HClO4 with NaOH), metal-free peptide in SDS, helical-like structure by CD
[7] = not stated for the quoted titrations (the Figure 4 competition plot caption gives T = 298 K), metal-free peptide in water, cited from earlier work

Protein	pKa [1, 5]	pKa [1, 6]	pKa [1, 7]	pKa [2, 6]	pKa [2, 7]	pKa [3, 5]	pKa [3, 6]	pKa [3, 7]	pKa (His18 (position 18, …); [6])	pKa (His18 (position 18, …); [7])	pKa [2, 5]	pKa [4, 6]	pKa [4, 7]
B1	9.61	10.08	9.49	7.85	7.13	10.04	10.44	10.20	–	–	–	–	–
B2	–	10.01	–	–	–	–	10.50	–	7.57	–	–	–	–
B3	10.28	9.93	9.67	8.39	7.53	10.89	10.92	10.32	6.76	5.79	–	–	–
B4	–	–	–	8.18	7.97	10.05	9.88	10.83	–	–	8.98	7.28	6.04
